Experimental findings from patent US20230312724A1 (KADMON, published 2023) are described below.

A word on the EC50 (read off the curve): it is the concentration giving half of the maximal effect. Low values mean higher potency in that assay, high ones lower potency in that assay. In general, EC50 refers to the concentration at which the effect is half-maximal. A lower EC50 goes with an effect from little substance. Broadly, the Kd is the free concentration of one partner at which half of the binding sites on the other are occupied at equilibrium, for simple one-to-one binding. A low value points to higher affinity.

Where two headings read alike, the source gives them in different places.

The target of experiment [1] is T1, IgV domain of mouse B7-H4-Fc (mouse; human).
T1 construct: also called mB7-H4 IgV domain
The experiment is described as follows: ELISA, coated mB7-H4 IgV domain. On the technique in general: In an ELISA, binding on a coated surface is turned into a signal by an enzyme label.

The next experiment has as its target T2, human B7-H4-his (human, UniProt Q7Z7D3 25-259).
T2 construct: also called hB7-H4-his; hB7-H4 his; not shown: his tag
T2 sequence: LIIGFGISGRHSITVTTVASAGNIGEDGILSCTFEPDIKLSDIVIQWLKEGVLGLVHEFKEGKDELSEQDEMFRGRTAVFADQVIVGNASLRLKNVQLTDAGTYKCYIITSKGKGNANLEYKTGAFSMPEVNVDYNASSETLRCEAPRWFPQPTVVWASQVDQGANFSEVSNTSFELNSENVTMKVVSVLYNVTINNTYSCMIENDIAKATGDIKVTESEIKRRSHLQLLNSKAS
The experiment is described as follows: ELISA, coated hB7-H4-his. As for the experimental part: (§1) About 1-2 μg/ml of human or mouse B7-H4-Fc (or his-tagged) was immobilized on ELISA plates (Immuno 2HB, Thermo scientific, cat #3455) at 4° C. overnight. After blocking the plates with 3% PBS+milk, serial diluted antibodies were added to the blocked plates and incubated at RT for 1-1.5 h. After washing the plates with PBS-T (0.05%), horse radish peroxidase (HRP)-conjugated antibody targeting the hFab was added to the plate. Signals were developed by adding 3,3′,5,5′-Tetramethylbenzidine (TMB (followed 1N of H₂SO₄ to stop the reaction. The OD at 450 nm was read by ELISA plate reader (Infinite M1000 from TECAN). GraphPad from Prism was used to plot OD450 vs. antibody concentration curve and to calculate the EC50 values.

For experiment [2], the target named is T3, mouse B7-H4 expressed on cells (mouse, UniProt Q7TSP5 25-257).
T3 construct: also called cellular mB7-H4; mB7-H4/CT26
T3 sequence: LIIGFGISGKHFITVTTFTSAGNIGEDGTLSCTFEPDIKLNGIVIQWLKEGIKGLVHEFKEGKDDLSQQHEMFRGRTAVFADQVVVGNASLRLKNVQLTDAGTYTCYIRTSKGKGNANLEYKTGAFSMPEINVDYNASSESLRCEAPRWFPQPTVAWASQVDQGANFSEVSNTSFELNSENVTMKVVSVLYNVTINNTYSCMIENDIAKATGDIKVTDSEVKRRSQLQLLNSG
The experiment is described as follows: flow cytometry, mB7-H4/CT26 cells. (In general: Flow cytometry measures light scatter and fluorescence of single cells or particles in a stream.)

The target of another experiment is T4, mouse B7-H4-his (mouse, UniProt Q7TSP5 25-257).
T4 construct: also called mB7-H4-his; mB7-H4-His; not shown: his tag
T4 sequence: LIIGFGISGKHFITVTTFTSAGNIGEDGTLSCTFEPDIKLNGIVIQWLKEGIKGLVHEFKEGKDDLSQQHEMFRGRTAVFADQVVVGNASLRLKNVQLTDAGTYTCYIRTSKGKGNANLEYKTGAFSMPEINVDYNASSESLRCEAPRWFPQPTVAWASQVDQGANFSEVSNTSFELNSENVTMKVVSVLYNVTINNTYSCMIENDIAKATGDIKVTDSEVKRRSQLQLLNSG
Kind of experiment: ELISA on coated mB7-H4-his. As for the experimental part: as §1

The target of experiment [3] is T5, human B7-H4 expressed on cells (human, UniProt Q7Z7D3 25-282).
T5 construct: Transfected CHO cells or tumor cell lines that carry hB7-H4; also called cellular hB7-H4
T5 sequence: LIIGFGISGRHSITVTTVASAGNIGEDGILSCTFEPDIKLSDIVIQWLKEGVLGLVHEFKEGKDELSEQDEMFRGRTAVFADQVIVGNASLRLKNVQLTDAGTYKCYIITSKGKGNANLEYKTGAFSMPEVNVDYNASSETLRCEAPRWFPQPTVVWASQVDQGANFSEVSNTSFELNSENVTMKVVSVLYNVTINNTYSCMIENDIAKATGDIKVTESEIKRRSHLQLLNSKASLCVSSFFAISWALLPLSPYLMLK
The experiment is described as follows: flow cytometry, MDA-MB-468 cells. On the procedure: (§2) Cells were harvested, washed once, and then re-suspended to the concentration of 1×10⁶ cells/ml in ice cold FACS Buffer. 25 μl of cell suspension was added to each well of a 96-well round-bottom microliter plate. Serially diluted antibodies or fusion proteins were added to each well and incubated for 1 hour at 4° C. Cells were washed three times by centrifugation at 1500 rpm for 5 minutes, and then stained with secondary antibody (1:200 dilution) for 30 min at 4° C. in the dark. Cells were washed once, re-suspended in 100 μl PBS buffer and then analyzed using Guava Flow Cytometry EasyCyte system.

For experiment [4], the target named is T6, IgV domain of human B7-H4-Fc (human).
T6 construct: also called hB7-H4 IgV domain
Kind of experiment: ELISA, coated hB7-H4 IgV domain.

The target of experiment [5] is T7, mB7-H4 (soluble mouse B7-H4, construct not named) (mouse, UniProt Q7TSP5 25-257, limits assumed).
T7 sequence: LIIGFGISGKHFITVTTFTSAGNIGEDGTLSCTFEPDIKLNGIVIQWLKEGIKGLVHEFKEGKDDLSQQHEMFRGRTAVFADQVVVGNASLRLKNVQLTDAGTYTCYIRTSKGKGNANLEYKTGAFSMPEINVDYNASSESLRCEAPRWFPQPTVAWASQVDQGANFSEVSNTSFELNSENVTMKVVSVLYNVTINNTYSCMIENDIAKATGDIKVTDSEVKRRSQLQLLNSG
The experiment is described as follows: SPR (Biacore). The gist of the method:
(§3)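 Kinetic constants came from a 1:1 Langmuir fit of binding at 25 °C in HBS-EP, pH 7.4. Analyte (100 nM to 0.1 nM) flowed for 180 s, then dissociated for 1000 or 1200 s, over amine-coupled human B7-H4-Fc, human B7-H4-his or mouse B7-H4-Fc surfaces at 50-100 RU.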
Background: In SPR one partner is held on a chip, and binding of the other changes the refractive index at the surface.

Experiment [6] addresses T8, hB7-H4 (soluble human B7-H4, construct not named) (human, UniProt Q7Z7D3 25-259, limits assumed).
T8 construct: also called soluble hB7-H4
T8 sequence: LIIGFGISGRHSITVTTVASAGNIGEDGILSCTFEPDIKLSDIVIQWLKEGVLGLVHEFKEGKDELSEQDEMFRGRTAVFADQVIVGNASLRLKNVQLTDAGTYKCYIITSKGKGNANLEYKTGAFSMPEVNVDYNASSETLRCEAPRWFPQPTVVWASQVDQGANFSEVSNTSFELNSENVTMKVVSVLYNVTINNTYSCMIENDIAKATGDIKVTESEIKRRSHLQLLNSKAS
The experiment is described as follows: SPR (Biacore). The gist of the method: as §3

Experiment [7] concerns the target T8, hB7-H4 (soluble human B7-H4, construct …). The experiment is described as follows: ELISA, hB7-H4. Put shortly:
(§4)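 EC50 values come from fitted OD450-versus-antibody-concentration curves. Antibody dilution series bound for 1-1.5 h at RT to plates coated overnight at 4° C with about 1-2 μg/ml human or mouse B7-H4-Fc or His-tagged protein, milk-blocked. Detection used HRP-conjugated anti-hFab with TMB substrate and an acid stop.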

Experiment [8] addresses T5, human B7-H4 expressed on cells. The experiment is described as follows: flow cytometry on SK-BR-3 cells. As for the experimental part:
as §2

Experiment [9] addresses T3, mouse B7-H4 expressed on cells. Kind of experiment: flow cytometry, mB7-H4/CT26 cells. Put shortly:
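Binding read on a Guava flow cytometer after two-step staining at 4 °C: serial dilutions of antibody or fusion protein for 1 h, then 1:200 secondary antibody for 30 min in the dark. Cells suspended at 1×10⁶ cells/ml in cold FACS buffer, washed three times between steps.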
This is another data set of the same source.

Experiment [10] has as its target T7, mB7-H4 (soluble mouse B7-H4, construct …). The experiment is described as follows: ELISA, mB7-H4. The gist of the method:
as §4

T1 sequence (chain, as listed by the source): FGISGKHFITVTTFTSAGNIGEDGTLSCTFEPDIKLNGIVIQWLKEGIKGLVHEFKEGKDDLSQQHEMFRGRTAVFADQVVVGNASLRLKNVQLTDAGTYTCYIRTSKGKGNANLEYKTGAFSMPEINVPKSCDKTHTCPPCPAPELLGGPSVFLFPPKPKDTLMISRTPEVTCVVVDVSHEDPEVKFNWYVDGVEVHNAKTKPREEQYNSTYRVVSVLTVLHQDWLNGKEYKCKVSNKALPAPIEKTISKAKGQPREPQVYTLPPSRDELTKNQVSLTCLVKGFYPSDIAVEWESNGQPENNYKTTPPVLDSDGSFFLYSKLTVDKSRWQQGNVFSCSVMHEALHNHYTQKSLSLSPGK
T6 sequence (chain, as listed by the source): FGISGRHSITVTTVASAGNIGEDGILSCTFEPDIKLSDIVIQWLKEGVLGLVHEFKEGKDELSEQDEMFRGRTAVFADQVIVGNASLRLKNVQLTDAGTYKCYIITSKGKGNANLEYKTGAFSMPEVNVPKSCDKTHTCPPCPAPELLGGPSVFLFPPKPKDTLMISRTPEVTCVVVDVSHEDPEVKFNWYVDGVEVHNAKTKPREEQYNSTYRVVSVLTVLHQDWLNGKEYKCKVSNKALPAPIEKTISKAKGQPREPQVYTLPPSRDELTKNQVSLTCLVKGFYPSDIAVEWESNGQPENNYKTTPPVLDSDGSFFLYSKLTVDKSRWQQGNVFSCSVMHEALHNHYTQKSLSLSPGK

B1: Control antibody 1 (antibody 20502 described in US20190085080A1) (antibody, V domains shown)
VH: QLQLQESGPGLVKPSETLSLTCTVSGGSIKSGSYYWGWIRQPPGKGLEWIGNIYYSGSTYYNPSLRSRVTISVDTSKNQFSLKLSSVTAADTAVYYCAREGSYPNQFDPWGQGTLVTVSS
VL: EIVMTQSPATLSVSPGERATLSCRASQSVSSNLAWYQQKPGQAPRLLIYGASTRATGIPARFSGSGSGTEFTLTISSLQSEDFAVYYCQQYHSFPFTFGGGTKVEIK
notes: also called (+) control Ab1; (+) Ab1
Turning to B1, the results for the “EC50 (read off the curve)” value (in [1]; with human B7-H4-his; in the experiment with mouse B7-H4-his) were approximately 0.3 nM, approximately 0.2 nM and approximately 0.2 nM, respectively. In [2], the EC50 amounted to 2.06 nM.

B2: 39A11/57G8 (antibody, human IgG1, V domains shown)
VH: EVQLLESGGGLVQPGGSLRLSCAASGFTFSSYGMHWVRQAPGKGLEWVASISSSSGYIYYADSVKGRFTISRDNSKNTLYLQMNSLRAEDTAVYYCARASSGMDVWGQGTTVTVSS
VL: DIQMTQSPSSLSASVGDRVTITCRASQSIRSYLNWYQQKPGKAPKLLIYYASSLQSGVPSRFSGSGSGTDFTLTISSLQPEDFATYYCQQYYSTPLTFGQGTKVEIK
notes: 39A11 VH with 57G8 VL
Take B2: the EC50 stood at 13.1 nM in [3]; 7.82 nM in experiment [2]; 0.068 nM in experiment [7]; 1.22 nM in experiment [9]; 0.096 nM in [10]. Moreover, the half-maximal effective concentration (EC50 (read off the curve)) is approximately 0.2 nM in experiment [1], approximately 0.1 nM in experiment [4] and approximately 2 nM in experiment [8]. Also, the Kd was found to be 0.0998 nM in experiment [5] and 0.303 nM in experiment [6].
